Results from patent publication US20260115269A1, “MYC[…] CELL EPITOPES, MEGAPOOLS AND USES THEREOF” (La Jolla Institute for Immunology, priority 2022, published 2026).

B1: Rv3615c: Mtb antigen included in the ESAT-6 free IGRA test (protein, UniProt P9WJD7 2-103, looked up)
ESX-1 secretion-associated …: TENLTVQPERLGVLASHHDNAAVDASSGVEAAAGLGESVAITHGPYCSQFNDTLNVYLTAHNALGSSLHTAGVDLAKSLRIAAKIYSEADEAWRKAIDGLFT
B2: Rv1196: Mtb vaccine candidate antigen, tested as peptides (protein, UniProt L7N675 1-391, looked up)
PPE family protein PPE18: MVDFGALPPEINSARMYAGPGSASLVAAAQMWDSVASDLFSAASAFQSVVWGLTVGSWIGSSAGLMVAAASPYVAWMSVTAGQAELTAAQVRVAAAAYETAYGLTVPPPVIAENRAELMILIATNLLGQNTPAIAVNEAEYGEMWAQDAAAMFGYAAATATATATLLPFEEAPEMTSAGGLLEQAAAVEEASDTAAANQLMNNVPQALQQLAQPTQGTTPSSKLGGLWKTVSPHRSPISNMVSMANNHMSMTNSGVSMTNTLSSMLKGFAPAAAAQAVQTAAQNGVRAMSSLGSSLGSSGLGGGVAANLGRAASVGSLSVPQAWAAANQAVTPAARALPLTSLTSAAERGPGQMLGGLPVGQMGARAGGGLSGVLRVPPRPYVMPHSPAAG
modifications: tested as peptides
B3: Rv0288: Mtb antigen, TB vaccine candidate antigen, tested as peptides (protein, UniProt P9WNK3 1-96, looked up)
ESAT-6-like protein EsxH: MSQIMYNYPAMLGHAGDMAGYAGTLQSLGAEIAVEQAALQSAWQGDTGITYQAWQAQWNQAMEDLVRAYHAMSSTHEANTMAMMARDTAEAAKWGG
modifications: tested as peptides

Assays:
[1] = system: PBMCs from participants mid-treatment for ATB; test: Proteome-wide peptide library screen: ex vivo IFNγ and IL-17 Fluorospot, positive pools deconvoluted to individual epitopes; assay type: cell-based, human; conditions: n=21
[2] = system: PBMCs from ATB participants; test: Fluorospot screen of 517 overlapping 15-mer peptides spanning TB vaccine candidate and IGRA antigens; assay type: cell-based, human; conditions: overlapping 15-mers; IGRA+ data from previous study

Molecule	antigen recognition in the proteome-wide screen [1]	antigen recognition in ATB (n=21) compared with healthy IGRA+ participants (n=63) [2]
Rv3874: Mtb IGRA antigen, tested as peptides	most frequently recognized	most frequently recognized
B1	most frequently recognized	–
B2	–	most frequently recognized
B3	most frequently recognized	most frequently recognized
